# The supplement of paper PMC9112550, “Optimization of the antimicrobial peptide Bac7 by deep mutational scanning” (BMC Biology, 2022)
# Test system: Escherichia coli TOP10
# Experiment: shrunken log2 fold change of peptide-encoding DNA abundance (4.5 h post-induction vs induction); higher = less antimicrobial activity (less host growth inhibition)
# Conditions: time post-induction: 4.5 h; library: site-saturation at positions 5, 18, 19, 20
# 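Also: peptides expressed intracellularly from a pBAD plasmid library in pooled LB shake-flask culture, induced with 0.3% L-arabinose, DNA abundance read by NGS, three biological replicates, DESeq2 with apeglm shrinkage.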
row,Sequence,shrunken log2 fold change
1,RRIRKRPPRLPRPRPRPHVTPRP,-0.0241
2,RRIRCRPPRLPRPRPRPLEAPRP,0.203
3,RRIRQRPPRLPRPRPRPPAWPRP,0.0654
4,RRIRNRPPRLPRPRPRPEVYPRP,0.0702
5,RRIRKRPPRLPRPRPRPYQLPRP,-0.0193
6,RRIRSRPPRLPRPRPRPPLKPRP,0.0467
7,RRIRKRPPRLPRPRPRPCKMPRP,0.093
8,RRIRWRPPRLPRPRPRPRRTPRP,0.0983
9,RRIRERPPRLPRPRPRPQYMPRP,-0.213
10,RRIRPRPPRLPRPRPRPGFRPRP,0.138
11,RRIRWRPPRLPRPRPRPPWWPRP,0.674
12,RRIRFRPPRLPRPRPRPVMCPRP,-0.263
13,RRIRCRPPRLPRPRPRPFWHPRP,-0.0854
14,RRIRDRPPRLPRPRPRPLNHPRP,-0.154
15,RRIRERPPRLPRPRPRPRRGPRP,0.142
16,RRIRYRPPRLPRPRPRPYVYPRP,-0.26
17,RRIRSRPPRLPRPRPRPNPSPRP,-0.00593
18,RRIRHRPPRLPRPRPRPSRCPRP,-0.648
19,RRIRNRPPRLPRPRPRPTYCPRP,-0.276
20,RRIRKRPPRLPRPRPRPPARPRP,1.16
21,RRIRIRPPRLPRPRPRPKGMPRP,-0.214
22,RRIRTRPPRLPRPRPRPGSNPRP,-0.415
23,RRIRCRPPRLPRPRPRPLENPRP,-0.102
24,RRIRVRPPRLPRPRPRPNRSPRP,-0.0169
25,RRIRTRPPRLPRPRPRPHALPRP,0.0575

row,Sequence,shrunken log2 fold change
1,RRIRDRPPRLPRPRPRPKEKPRP,-0.0263
2,RRIRQRPPRLPRPRPRPVAAPRP,0.51
3,RRIRARPPRLPRPRPRPFNHPRP,-0.436
4,RRIRTRPPRLPRPRPRPVDIPRP,-0.282
5,RRIRHRPPRLPRPRPRPGNSPRP,0.0912
6,RRIRCRPPRLPRPRPRPRMVPRP,0.205
7,RRIRTRPPRLPRPRPRPTDFPRP,-0.405
8,RRIRSRPPRLPRPRPRPGRPPRP,0.245
9,RRIRHRPPRLPRPRPRPKLEPRP,-0.0604
10,RRIRYRPPRLPRPRPRPRGLPRP,-0.0424
11,RRIRERPPRLPRPRPRPRYFPRP,-0.54
12,RRIRWRPPRLPRPRPRPTTRPRP,0.672
13,RRIRWRPPRLPRPRPRPCSQPRP,0.0161
14,RRIRQRPPRLPRPRPRPVACPRP,-0.0393
15,RRIRSRPPRLPRPRPRPPGSPRP,0.134
16,RRIRKRPPRLPRPRPRPKSVPRP,0.451
17,RRIRQRPPRLPRPRPRPPDIPRP,-0.0497
18,RRIRGRPPRLPRPRPRPIDEPRP,0.433
19,RRIRDRPPRLPRPRPRPCWQPRP,0.0562
20,RRIRFRPPRLPRPRPRPQHPPRP,-0.326
21,RRIRWRPPRLPRPRPRPDNKPRP,-0.571
22,RRIRSRPPRLPRPRPRPYAAPRP,-0.0585
23,RRIRWRPPRLPRPRPRPEEHPRP,0.23
24,RRIRCRPPRLPRPRPRPTHMPRP,-0.173
25,RRIRVRPPRLPRPRPRPRVWPRP,0.736

row,Sequence,shrunken log2 fold change
1,RRIRGRPPRLPRPRPRPHMEPRP,0.0707
2,RRIRDRPPRLPRPRPRPPCNPRP,-0.424
3,RRIRCRPPRLPRPRPRPITGPRP,-0.213
4,RRIRPRPPRLPRPRPRPPNIPRP,-0.414
5,RRIRDRPPRLPRPRPRPMYHPRP,0.0212
6,RRIRQRPPRLPRPRPRPYYKPRP,-0.962
7,RRIRMRPPRLPRPRPRPYFIPRP,-0.413
8,RRIRFRPPRLPRPRPRPVWDPRP,0.0852
9,RRIRMRPPRLPRPRPRPKHMPRP,0.171
10,RRIRDRPPRLPRPRPRPLMFPRP,-0.188
11,RRIRCRPPRLPRPRPRPLHYPRP,-0.352
12,RRIRIRPPRLPRPRPRPWHAPRP,-0.0572
13,RRIRSRPPRLPRPRPRPARSPRP,0.158
14,RRIRGRPPRLPRPRPRPQDFPRP,0.178
15,RRIRTRPPRLPRPRPRPHFHPRP,-0.589
16,RRIRVRPPRLPRPRPRPKMMPRP,-0.313
17,RRIRWRPPRLPRPRPRPISIPRP,-0.234
18,RRIRYRPPRLPRPRPRPDRQPRP,-0.0345
19,RRIRFRPPRLPRPRPRPCLAPRP,-0.245
20,RRIRRRPPRLPRPRPRPQGTPRP,0.294
21,RRIRHRPPRLPRPRPRPFGKPRP,0.0294
22,RRIRARPPRLPRPRPRPWVIPRP,-0.296
23,RRIRHRPPRLPRPRPRPVWQPRP,0.0177
24,RRIRDRPPRLPRPRPRPVCWPRP,0.747
25,RRIRTRPPRLPRPRPRPYMEPRP,2.39

row,Sequence,shrunken log2 fold change
1,RRIRIRPPRLPRPRPRPTQAPRP,-0.00254
2,RRIRFRPPRLPRPRPRPDPWPRP,0.0822
3,RRIRARPPRLPRPRPRPDNDPRP,-0.196
4,RRIRIRPPRLPRPRPRPQYLPRP,-0.346
5,RRIRWRPPRLPRPRPRPCMYPRP,-0.325
6,RRIRARPPRLPRPRPRPHIWPRP,-0.187
7,RRIRRRPPRLPRPRPRPWLPPRP,0.221
8,RRIRCRPPRLPRPRPRPYYKPRP,-0.992
9,RRIRDRPPRLPRPRPRPHDGPRP,0.1
10,RRIRQRPPRLPRPRPRPSKEPRP,-0.371
11,RRIRDRPPRLPRPRPRPSDEPRP,0.406
12,RRIRTRPPRLPRPRPRPFYSPRP,-0.701
13,RRIRSRPPRLPRPRPRPIINPRP,-0.565
14,RRIRRRPPRLPRPRPRPPEQPRP,0.033
15,RRIRTRPPRLPRPRPRPRILPRP,-0.0615
16,RRIRWRPPRLPRPRPRPCDWPRP,0.0315
17,RRIRMRPPRLPRPRPRPYEMPRP,0.0693
18,RRIRGRPPRLPRPRPRPGLHPRP,0.682
19,RRIRKRPPRLPRPRPRPTPSPRP,0.921
20,RRIRKRPPRLPRPRPRPSFQPRP,0.0564
21,RRIRTRPPRLPRPRPRPASSPRP,-0.362
22,RRIRMRPPRLPRPRPRPPLTPRP,0.843
23,RRIRYRPPRLPRPRPRPHYIPRP,-0.318
24,RRIRARPPRLPRPRPRPPYEPRP,0.194
25,RRIRYRPPRLPRPRPRPIMAPRP,-0.708

row,Sequence,shrunken log2 fold change
1,RRIRARPPRLPRPRPRPKFIPRP,-0.135
2,RRIRSRPPRLPRPRPRPQGYPRP,-0.139
3,RRIRDRPPRLPRPRPRPLQCPRP,0.0793
4,RRIRMRPPRLPRPRPRPSKTPRP,0.00519
5,RRIRMRPPRLPRPRPRPTQGPRP,0.805
6,RRIRNRPPRLPRPRPRPPEQPRP,0.112
7,RRIRVRPPRLPRPRPRPPPKPRP,1.11
8,RRIRWRPPRLPRPRPRPPGHPRP,0.403
9,RRIRDRPPRLPRPRPRPFHDPRP,-0.157
10,RRIRIRPPRLPRPRPRPAFIPRP,-0.509
11,RRIRGRPPRLPRPRPRPFNCPRP,-0.116
12,RRIRRRPPRLPRPRPRPLHVPRP,-0.125
13,RRIRIRPPRLPRPRPRPVHDPRP,-0.0869
14,RRIRWRPPRLPRPRPRPSLWPRP,0.575
15,RRIRYRPPRLPRPRPRPTIVPRP,-0.0265
16,RRIRKRPPRLPRPRPRPCGRPRP,0.0548
17,RRIRGRPPRLPRPRPRPNGKPRP,0.311
18,RRIRRRPPRLPRPRPRPSNYPRP,-0.169
19,RRIRWRPPRLPRPRPRPMQMPRP,1.53
20,RRIRQRPPRLPRPRPRPKRGPRP,0.38
21,RRIRMRPPRLPRPRPRPVVAPRP,0.533
22,RRIRKRPPRLPRPRPRPPFLPRP,-0.0158
23,RRIRHRPPRLPRPRPRPPTEPRP,0.159
24,RRIRYRPPRLPRPRPRPGWMPRP,-0.000507
25,RRIRCRPPRLPRPRPRPQATPRP,0.122

row,Sequence,shrunken log2 fold change
1,RRIRYRPPRLPRPRPRPWYMPRP,-0.838
2,RRIRMRPPRLPRPRPRPDLCPRP,0.196
3,RRIRKRPPRLPRPRPRPKRVPRP,0.717
4,RRIRWRPPRLPRPRPRPIFVPRP,0.0493
5,RRIRYRPPRLPRPRPRPHSCPRP,-0.00211
6,RRIRHRPPRLPRPRPRPADLPRP,-0.0314
7,RRIRKRPPRLPRPRPRPMFGPRP,0.112
8,RRIRWRPPRLPRPRPRPVKTPRP,0.00121
9,RRIRRRPPRLPRPRPRPACRPRP,0.456
10,RRIRQRPPRLPRPRPRPNGHPRP,-0.104
11,RRIRMRPPRLPRPRPRPVMMPRP,0.147
12,RRIRMRPPRLPRPRPRPEHMPRP,0.147
13,RRIRPRPPRLPRPRPRPHFTPRP,-0.302
14,RRIRSRPPRLPRPRPRPDLAPRP,0.444
15,RRIRPRPPRLPRPRPRPSANPRP,-0.00762
16,RRIRCRPPRLPRPRPRPQAAPRP,0.225
17,RRIRMRPPRLPRPRPRPKGGPRP,0.115
18,RRIRRRPPRLPRPRPRPITDPRP,-0.101
19,RRIRPRPPRLPRPRPRPHYMPRP,-0.747
20,RRIRARPPRLPRPRPRPRANPRP,0.694
21,RRIRRRPPRLPRPRPRPHDPPRP,-0.0379
22,RRIRRRPPRLPRPRPRPINWPRP,-0.0685
23,RRIRCRPPRLPRPRPRPDPDPRP,-0.141
24,RRIRMRPPRLPRPRPRPAKDPRP,0.042
25,RRIRMRPPRLPRPRPRPNWIPRP,-0.118
